FireProtDB (doi:10.1021/bi00014a029)

Settings: Meleagris gallopavo, Thermal, Potassium phosphate/Potassium acetate 10 mM/10 mM/
[1] = pH 1.5, CD, reversible: yes (82%)
[2] = pH 1.99, DSC, reversible: yes (91%)
[3] = pH 2.1, CD, reversible: yes (89%)
[4] = pH 2.5, CD, reversible: yes (85%)
[5] = pH 2.52, DSC, reversible: yes (90%)
[6] = pH 2.56, DSC, reversible: yes (78%)
[7] = pH 3.46, DSC, reversible: yes (90%)
[8] = pH 3.48, DSC, reversible: yes (81%)
[9] = pH 3.94, DSC, reversible: yes (87%)
[10] = pH 4.51, DSC, reversible: yes (84%)
[11] = pH 4.96, DSC, reversible: yes (100%)

Ovomucoid wild type, P68390, sequence (P68390 whole entry): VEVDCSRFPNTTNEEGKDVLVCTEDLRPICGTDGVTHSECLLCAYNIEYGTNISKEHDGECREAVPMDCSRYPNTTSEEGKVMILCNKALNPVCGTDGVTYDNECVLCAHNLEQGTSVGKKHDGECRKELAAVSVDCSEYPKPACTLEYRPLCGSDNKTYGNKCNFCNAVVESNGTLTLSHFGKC

Ovomucoid wild type, P68390
Tm [1]: 60.5 °C | unfolding enthalpy (van 't Hoff) [1]: 40.9 kcal/mol | Tm [2]: 63.1 °C | unfolding enthalpy (calorimetric) [2]: 44.2 kcal/mol | unfolding enthalpy (van 't Hoff) [2]: 44.6 kcal/mol | Tm [3]: 62.7 °C | unfolding enthalpy (van 't Hoff) [3]: 42.8 kcal/mol | Tm [4]: 66.2 °C | unfolding enthalpy (van 't Hoff) [4]: 43.7 kcal/mol | Tm [5]: 68.5 °C | unfolding enthalpy (calorimetric) [5]: 47.7 kcal/mol | unfolding enthalpy (van 't Hoff) [5]: 49.2 kcal/mol | Tm [6]: 65.7 °C | unfolding enthalpy (calorimetric) [6]: 45.4 kcal/mol | unfolding enthalpy (van 't Hoff) [6]: 45.4 kcal/mol | Tm [7]: 78.7 °C | unfolding enthalpy (calorimetric) [7]: 48.1 kcal/mol | unfolding enthalpy (van 't Hoff) [7]: 49.6 kcal/mol | Tm [8]: 78.7 °C | unfolding enthalpy (calorimetric) [8]: 50 kcal/mol | unfolding enthalpy (van 't Hoff) [8]: 51 kcal/mol | Tm (pH 3.51, DSC): 80.8 °C | unfolding enthalpy (calorimetric) (pH 3.51, DSC): 55 kcal/mol | unfolding enthalpy (van 't Hoff) (pH 3.51, DSC): 57.9 kcal/mol | Tm [9]: 85.7 °C | unfolding enthalpy (calorimetric) [9]: 55.3 kcal/mol | unfolding enthalpy (van 't Hoff) [9]: 52.7 kcal/mol | Tm [10]: 85.2 °C | unfolding enthalpy (calorimetric) [10]: 57.4 kcal/mol | unfolding enthalpy (van 't Hoff) [10]: 56.3 kcal/mol | Tm [11]: 87.8 °C | unfolding enthalpy (calorimetric) [11]: 62.4 kcal/mol
